# According to the supplement of paper PMC7125110:
# ± gives the standard error. Fewer inactive variants are shown than the library holds.
# B1: glmS ribozyme (parent)
# chain: AUAAAAGCGCCAGAACUACAGAAAUGUAGUUGACGAGGAGGAGGUUUAUCGAAUUUUCGGCGGAUGCCUCCAAA
# Variants of: B1
# Experiment: self-cleavage kobs at 2500 uM GlcN6P; higher = faster cleavage; RNA array
# Settings: with glucosamine-6-phosphate
# Summary of the method: (§1)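 Glucosamine-6-phosphate, from 40 μM to 10 mM in HEPES/KCl/Mg(OAc)2 buffer, was flowed over sequenced MiSeq chips carrying barcoded ribozyme variants transcribed in situ by E. coli RNA polymerase. A hybridised Cy3 probe tracked the variants at 37 °C as tiles were imaged over ~14 h. kobs, kcat and KM were obtained by fitting normalised per-tile medians to exponential decays and then applying weighted Michaelis–Menten fits across concentrations.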
row,Variant,self-cleavage kobs at 2500 uM GlcN6P
1,A6C A14G C50U,< 1e-05 s⁻¹
2,U57G G59U,< 1e-05 s⁻¹
3,U57A G60A C67G,0.000109 ± 3.2e-05 s⁻¹
4,A6C C34A A39G U45A,< 1e-05 s⁻¹
5,U65A G66A C71U,0.000397 ± 0.0001 s⁻¹
6,A48G A52U G59U,< 1e-05 s⁻¹
7,C50U G63U C68G,7.59e-05 ± 3.2e-05 s⁻¹
8,A52G U69G C70U,7.59e-05 ± 1.7e-05 s⁻¹
9,C58U C67U U69A,0.000214 ± 9e-05 s⁻¹
10,A6C A36G C61G G66A,< 1e-05 s⁻¹
11,G63U U65C,< 1e-05 s⁻¹
12,A6C G29U G40A U49G C68U,< 1e-05 s⁻¹
13,U2C C61G,< 1e-05 s⁻¹
14,U46G C58A A64U,< 1e-05 s⁻¹
15,A6C A39C C68U,< 1e-05 s⁻¹
16,C50G C61U G66U,0.00022 ± 8e-05 s⁻¹
17,C50G C67G C70U C71A,0.000157 ± 2.9e-05 s⁻¹
18,U54A A64G C68G,0.000109 ± 3.5e-05 s⁻¹
19,A1C U57C,9.88e-05 ± 2.4e-05 s⁻¹
20,A6C G7C G63A,< 1e-05 s⁻¹
21,A53U U54A U56A C70G,8.57e-05 ± 1.9e-05 s⁻¹
22,A4C,0.0314 ± 0.0074 s⁻¹

row,Variant,self-cleavage kobs at 2500 uM GlcN6P
1,G60C C68G C70U,< 1e-05 s⁻¹
2,A6C G7U U54C,< 1e-05 s⁻¹
3,G60U U69A,< 1e-05 s⁻¹
4,U46C G51U A52G U55A C61G,< 1e-05 s⁻¹
5,C61G G63A C71G,0.000255 ± 9.2e-05 s⁻¹
6,A6C G9C G35A A52G C68U,< 1e-05 s⁻¹
7,C50U C61A A64U C67G,9.68e-05 ± 4.1e-05 s⁻¹
8,U49C U55C,< 1e-05 s⁻¹
9,A1U G41U C70G C71U,0.000249 ± 4e-05 s⁻¹
10,A52C A53C U55C C67G,< 1e-05 s⁻¹
11,U49A C50A C70G,4.46e-05 ± 2e-05 s⁻¹
12,U54A U57A,0.000102 ± 2.8e-05 s⁻¹
13,U56C U57C,8.12e-05 ± 1.7e-05 s⁻¹
14,G51C U56G,< 1e-05 s⁻¹
15,A53U C58A C68U,6.03e-05 ± 2e-05 s⁻¹
16,U56G U57G G66U,< 1e-05 s⁻¹
17,U47C U55C,0.0023 ± 0.00064 s⁻¹
18,C58A G60U,< 1e-05 s⁻¹
19,A6C A12G A53U,< 1e-05 s⁻¹
20,A6C A14C G32A G38U,< 1e-05 s⁻¹
21,U2C A6C G60A,< 1e-05 s⁻¹

# Variants of: B1
# Experiment: self-cleavage kobs at 640 uM GlcN6P; higher = faster cleavage; RNA array
# Settings: with glucosamine-6-phosphate
# Summary of the method: as §1
row,Variant,self-cleavage kobs at 640 uM GlcN6P
1,U57G G59U,< 1e-05 s⁻¹
2,G51U A53U U54A,< 1e-05 s⁻¹
3,U57A G60A C67G,6.42e-05 ± 2.2e-05 s⁻¹
4,U65A G66A C71U,0.000198 ± 4.2e-05 s⁻¹
5,A48G A52U G59U,< 1e-05 s⁻¹
6,G60U G63U C70A,< 1e-05 s⁻¹
7,C50U G63U C68G,0.000126 ± 5e-05 s⁻¹
8,A52G U69G C70U,0.000107 ± 3.1e-05 s⁻¹
9,C58U C67U U69A,6.03e-05 ± 2.7e-05 s⁻¹
10,G63U U65C,< 1e-05 s⁻¹
11,U46G C58A A64U,< 1e-05 s⁻¹
12,C50G C61U G66U,7.98e-05 ± 2.8e-05 s⁻¹
13,C50G C67G C70U C71A,0.000149 ± 4.5e-05 s⁻¹
14,U54A A64G C68G,5.8e-05 ± 2.1e-05 s⁻¹
15,A48U G62U C70U,< 1e-05 s⁻¹
16,U49C C50A C70A,7.42e-05 ± 3.6e-05 s⁻¹
17,A52C G59A U69G,< 1e-05 s⁻¹
18,A53U U54A U56A C70G,0.000134 ± 3e-05 s⁻¹
19,A53U C58G C68U,9.02e-05 ± 3.1e-05 s⁻¹
20,U46G U57C G60U,< 1e-05 s⁻¹
21,G60C C68G C70U,< 1e-05 s⁻¹
22,G60U U69A,< 1e-05 s⁻¹
23,U46C G51U A52G U55A C61G,< 1e-05 s⁻¹
24,C61G G63A C71G,0.000127 ± 4.2e-05 s⁻¹
25,U57A G63U,< 1e-05 s⁻¹
26,G51U C70A,5.2e-05 ± 1.5e-05 s⁻¹

row,Variant,self-cleavage kobs at 640 uM GlcN6P
1,C50U C61A A64U C67G,8.84e-05 ± 4.2e-05 s⁻¹
2,U54G U57A C58G C68A,0.000592 ± 0.00015 s⁻¹
3,C58U G59C C61U C71A,< 1e-05 s⁻¹
4,U49C U55C,< 1e-05 s⁻¹
5,A52G U54A C68U,6.73e-05 ± 2e-05 s⁻¹
6,U46G G63A C70G,5.25e-05 ± 2.2e-05 s⁻¹
7,A52C A53C U55C C67G,< 1e-05 s⁻¹
8,C50A G51U G59A U69A,0.000511 ± 0.00021 s⁻¹
9,U49A C50A C70G,5.26e-05 ± 2.2e-05 s⁻¹
10,U54A U57A,4.89e-05 ± 1.3e-05 s⁻¹
11,C50A C67U C70G,6.04e-05 ± 2.3e-05 s⁻¹
12,U56C U57C,7.5e-05 ± 2.2e-05 s⁻¹
13,G51C U56A,< 1e-05 s⁻¹
14,G51C U56G,< 1e-05 s⁻¹
15,C68A U69G,9.62e-05 ± 3.5e-05 s⁻¹
16,A53U C58A C68U,9.67e-05 ± 3.2e-05 s⁻¹
17,G60A C61G C67G,< 1e-05 s⁻¹
18,A64U C67U C71U,< 1e-05 s⁻¹
19,A48C U49G,< 1e-05 s⁻¹
20,U46G A53G C70A,0.000507 ± 0.0001 s⁻¹
21,A48U C50G C70U,9.42e-05 ± 2.9e-05 s⁻¹
22,U56G U57G G66U,< 1e-05 s⁻¹
23,U47C U55C,0.00134 ± 0.00031 s⁻¹
24,C58A G60U,< 1e-05 s⁻¹
25,A52C G62A G63C,< 1e-05 s⁻¹

# Variants of: B1
# Experiment: self-cleavage kobs at 10000 uM GlcN6P; higher = faster cleavage; RNA array
# Settings: with glucosamine-6-phosphate
# Summary of the method: as §1
row,Variant,self-cleavage kobs at 10000 uM GlcN6P
1,U57G G59U,< 1e-05 s⁻¹
2,G51U A53U U54A,< 1e-05 s⁻¹
3,G60U U69A,< 1e-05 s⁻¹
4,A1U G41U C70G C71U,0.000232 ± 6e-05 s⁻¹
5,G51C U56A,< 1e-05 s⁻¹
6,G51C U56G,< 1e-05 s⁻¹
7,A48C U49G,< 1e-05 s⁻¹
8,C58A G60U,< 1e-05 s⁻¹
